Source: the supplement of paper PMC7877785
± gives the uncertainty stated by the source.

Experiment: self-splicing fitness, log relative to wild type (ln ratio); higher = more splicing; Tetrahymena group I intron in knt gene, E. coli kanamycin selection, DiMSum; sequences stand for … in CUCUCU…GGAGGGAAAAGUUAUCAGGCAUGCACCUGGUAGCUAGUCUUUAAACCAAUAGAUUGCAUCGGUUUAAAAGGCAAGACCGUCAAAUUGCGGGAAAGGGGUCAACAGCCGUUCAGUACCAAGUCUCAGGGGAAACUUUGAGAUGGCCUUGCAAAGGGUAUGGUAAUAAGCUGACGGACAUGGUCCUAACCACGCAGCCAAGUCCUAAGUCAACAGAUCUUCUGUUGAUAUGGAUGCAGUUCACAGACUAAAUGUCGGUCGGGGAAGAUGUAUUCUUCUCAUAAGAUAUAGUCGGACCUCUCCUUAAUGGGAGCUAGCGGAUGAAGUGAUGCAACACUGGAGCCGCUGGGAACUAAUUUGUAUGCGAAAGUAUAUUGAUUAGUUUUGGAGUACUCGUGGUCG
Procedure, shortened: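 Fitness was computed with DiMSum as the error-weighted combination of replicate fold changes, kanamycin versus none, each normalised to wild type. The library randomised all eight intron nucleotides of the P1ex region, with the intron placed in the knt kanamycin-resistance gene on pET-22b(+) in E. coli BL21(DE3). Six replicate transformations were grown overnight at 37°C or 30°C on LB agar with or without 25 μg/mL kanamycin, plus 100 μg/mL carbenicillin, 50 μM IPTG and 0.2% rhamnose. Pooled colonies were amplicon-sequenced on an Illumina HiSeq 2500.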

Sequence | self-splicing fitness (ln) (30 °C) | self-splicing fitness (ln) (37 °C)
UGGCAGCAAUAUUACGUCGC | -3.89 ± 0.31 | -2.95 ± 0.43
UGGCAGCAAUAUUACGUGAA | -0.78 ± 0.058 | -0.431 ± 0.084
UGGCAGCAAUAUUACGUGAG | -0.544 ± 0.047 | 0.438 ± 0.077
UGGCAGCAAUAUUACGUUUG | -0.921 ± 0.06 | -0.496 ± 0.089
UGGGAGCAAUAUUACGAACU | -0.981 ± 0.1 | -1.42 ± 0.19
UGGGAGCAAUAUUACGAAGG | – | -1.1 ± 0.41
UGGGAGCAAUAUUACGACGA | – | -0.296 ± 0.36
UGGGAGCAAUAUUACGAGCG | -1.56 ± 0.14 | -0.816 ± 0.15
UGGGAGCAAUAUUACGAUCA | -0.66 ± 0.22 | -0.124 ± 0.19
UGGGAGCAAUAUUACGAUCG | -1.33 ± 0.13 | -0.561 ± 0.15
UGGGAGCAAUAUUACGCACA | -0.967 ± 0.35 | 0.399 ± 0.35
UGGGAGCAAUAUUACGCAGA | -1.08 ± 0.48 | -3 ± 0.35
UGGGAGCAAUAUUACGCAGC | – | -3.01 ± 0.49
UGGGAGCAAUAUUACGCGCA | -1.66 ± 0.15 | -1.16 ± 0.19
UGGGAGCAAUAUUACGCUCA | – | -2.72 ± 0.28
UGGGAGCAAUAUUACGGAAU | – | -1.69 ± 0.48
UGGGAGCAAUAUUACGGACU | -1.17 ± 0.36 | -2.35 ± 0.46
UGGGAGCAAUAUUACGGCGU | – | -0.706 ± 0.28
UGGGAGCAAUAUUACGUAGG | -3.24 ± 0.31 | -1.93 ± 0.32
UGGGAGCAAUAUUACGUCCU | – | -1.3 ± 0.26
UGGGAGCAAUAUUACGUGUA | – | -2.2 ± 0.26
UGGGAGCAAUAUUACGUUGC | -3.43 ± 0.4 | -1.53 ± 0.23
UGGUAGCAAUAUUACGAACA | -0.325 ± 0.15 | 0.205 ± 0.27
UGGUAGCAAUAUUACGAGAG | -3.55 ± 0.28 | -2.16 ± 0.21
UGGUAGCAAUAUUACGAGUG | -1.17 ± 0.13 | -0.313 ± 0.16

Sequence | self-splicing fitness (ln) (30 °C) | self-splicing fitness (ln) (37 °C)
UGGUAGCAAUAUUACGAUAU | -2.62 ± 0.16 | -1.62 ± 0.16
UGGUAGCAAUAUUACGCCCU | -0.668 ± 0.16 | 0.287 ± 0.16
UGGUAGCAAUAUUACGCGAU | -2.54 ± 0.28 | -0.974 ± 0.26
UGGUAGCAAUAUUACGCUUC | -2.63 ± 0.29 | -0.643 ± 0.35
UGGUAGCAAUAUUACGGCUU | 0.166 ± 0.18 | -0.0657 ± 0.2
UGGUAGCAAUAUUACGGUGC | -2.31 ± 0.34 | –
UGGUAGCAAUAUUACGGUUC | -3.54 ± 0.46 | -3.1 ± 0.47
UGGUAGCAAUAUUACGGUUU | -2.64 ± 0.17 | -2.6 ± 0.23
UGGUAGCAAUAUUACGUCCG | -0.727 ± 0.15 | -0.449 ± 0.24
UGUAAGCAAUAUUACGAACA | -0.358 ± 0.14 | 0.219 ± 0.17
UGUAAGCAAUAUUACGAAGA | – | -0.905 ± 0.37
UGUAAGCAAUAUUACGACAA | -0.378 ± 0.16 | -0.666 ± 0.14
UGUAAGCAAUAUUACGACAC | -2.51 ± 0.41 | –
UGUAAGCAAUAUUACGACGG | -1.46 ± 0.11 | -0.11 ± 0.12
UGUAAGCAAUAUUACGACUC | -1.52 ± 0.19 | -0.632 ± 0.25
UGUAAGCAAUAUUACGAGUU | -2.78 ± 0.13 | -2.69 ± 0.23
UGUAAGCAAUAUUACGAUAU | -3.01 ± 0.3 | -0.86 ± 0.24
UGUAAGCAAUAUUACGAUUG | -1 ± 0.081 | -0.574 ± 0.097
UGUAAGCAAUAUUACGCAAU | -3.44 ± 0.18 | -3.36 ± 0.2
UGUAAGCAAUAUUACGCAUG | -1.95 ± 0.099 | 0.308 ± 0.14
UGUAAGCAAUAUUACGCCCU | -0.237 ± 0.19 | -0.575 ± 0.24
UGUAAGCAAUAUUACGCCUC | -3.28 ± 0.32 | -2.25 ± 0.24
UGUAAGCAAUAUUACGCCUU | -1.69 ± 0.35 | -1.5 ± 0.43
UGUAAGCAAUAUUACGCGAC | -2.37 ± 0.27 | -2.4 ± 0.36
UGUAAGCAAUAUUACGCGCG | -0.498 ± 0.11 | -0.329 ± 0.15

Sequence | self-splicing fitness (ln) (30 °C) | self-splicing fitness (ln) (37 °C)
UGUAAGCAAUAUUACGCUUU | -3.09 ± 0.26 | -2.72 ± 0.27
UGUAAGCAAUAUUACGGAAA | -1.83 ± 0.17 | -1.67 ± 0.2
UGUAAGCAAUAUUACGGAAC | -2.78 ± 0.27 | -1.77 ± 0.26
UGUAAGCAAUAUUACGGAGG | -3.23 ± 0.21 | -3.5 ± 0.33
UGUAAGCAAUAUUACGGCGA | -0.0897 ± 0.085 | -0.0127 ± 0.11
UGUAAGCAAUAUUACGGGUC | -3.01 ± 0.41 | –
UGUAAGCAAUAUUACGGGUU | -3.86 ± 0.27 | -2 ± 0.2
UGUAAGCAAUAUUACGUAAU | -2.84 ± 0.095 | -1.33 ± 0.12
UGUAAGCAAUAUUACGUAGG | -1.71 ± 0.15 | -0.712 ± 0.2
UGUAAGCAAUAUUACGUCAC | -2.9 ± 0.19 | -2.28 ± 0.25
UGUAAGCAAUAUUACGUCAU | -2.39 ± 0.16 | -1.28 ± 0.19
UGUAAGCAAUAUUACGUCGG | -1.67 ± 0.13 | -1.95 ± 0.14
UGUAAGCAAUAUUACGUGAA | -1.8 ± 0.16 | 0.0061 ± 0.14
UGUAAGCAAUAUUACGUGCU | -1.48 ± 0.13 | -0.148 ± 0.16
UGUAAGCAAUAUUACGUUAU | -3.54 ± 0.22 | -2.73 ± 0.26
UGUCAGCAAUAUUACGACGG | -1.06 ± 0.076 | -0.98 ± 0.092
UGUCAGCAAUAUUACGAGAA | -1.43 ± 0.27 | -1.48 ± 0.22
UGUCAGCAAUAUUACGAUCC | -1.48 ± 0.086 | -0.717 ± 0.089
UGUCAGCAAUAUUACGAUUU | -0.0817 ± 0.061 | 0.461 ± 0.082
UGUCAGCAAUAUUACGCUAG | -0.41 ± 0.061 | -0.214 ± 0.077
UGUCAGCAAUAUUACGCUCA | 0.0629 ± 0.11 | -0.236 ± 0.11
UGUCAGCAAUAUUACGCUCG | -0.552 ± 0.16 | 0.987 ± 0.32
UGUCAGCAAUAUUACGGCCA | -0.139 ± 0.11 | -0.162 ± 0.12
UGUCAGCAAUAUUACGGGGA | -1.32 ± 0.061 | -0.476 ± 0.07
UGUCAGCAAUAUUACGUCAC | -3.9 ± 0.39 | -3.29 ± 0.37

Sequence | self-splicing fitness (ln) (30 °C) | self-splicing fitness (ln) (37 °C)
UGUCAGCAAUAUUACGUCAU | -1.79 ± 0.1 | -1.38 ± 0.14
UGUCAGCAAUAUUACGUCGU | -1.49 ± 0.1 | -0.759 ± 0.11
UGUCAGCAAUAUUACGUGGC | -4.53 ± 0.31 | -3.13 ± 0.31
UGUCAGCAAUAUUACGUUAA | -0.609 ± 0.1 | -0.411 ± 0.11
UGUCAGCAAUAUUACGUUAC | -3.4 ± 0.27 | -2.77 ± 0.43
UGUGAGCAAUAUUACGAAAG | -2.98 ± 0.18 | -2.69 ± 0.27
UGUGAGCAAUAUUACGAGCG | -1.29 ± 0.12 | -0.066 ± 0.12
UGUGAGCAAUAUUACGAUAA | -2.33 ± 0.16 | -1.92 ± 0.21
UGUGAGCAAUAUUACGAUAG | -2.74 ± 0.24 | -0.644 ± 0.2
UGUGAGCAAUAUUACGAUGU | -3.05 ± 0.18 | -2.08 ± 0.24
UGUGAGCAAUAUUACGCAUA | -1.6 ± 0.23 | -2.46 ± 0.33
UGUGAGCAAUAUUACGGCUC | -3.06 ± 0.44 | -3.18 ± 0.47
UGUGAGCAAUAUUACGGUAG | -2.45 ± 0.18 | -1.79 ± 0.21
UGUGAGCAAUAUUACGGUGU | -3 ± 0.31 | -2.84 ± 0.24
UGUGAGCAAUAUUACGUACG | -0.814 ± 0.1 | -0.164 ± 0.12
UGUGAGCAAUAUUACGUCGC | -1.15 ± 0.21 | –
UGUGAGCAAUAUUACGUUGU | -3.15 ± 0.25 | -3.13 ± 0.47
UGUUAGCAAUAUUACGACUU | -0.357 ± 0.11 | 0.12 ± 0.12
UGUUAGCAAUAUUACGAGUC | -4.22 ± 0.42 | –
UGUUAGCAAUAUUACGAGUU | -3.66 ± 0.28 | -1.85 ± 0.19
UGUUAGCAAUAUUACGAUAG | -2.07 ± 0.26 | 0.173 ± 0.17
UGUUAGCAAUAUUACGAUCG | -0.427 ± 0.26 | -0.0339 ± 0.28
UGUUAGCAAUAUUACGAUGU | -1.78 ± 0.12 | -0.548 ± 0.13
UGUUAGCAAUAUUACGAUUC | -2.39 ± 0.18 | -0.83 ± 0.18
